Data as given in paper PMC9682730.

Legend:
[1] = molecular target: spastin (human (endogenous in HEK293)) (UniProt Q9UBP0); assay: co-IP; reverse IP with spastin antibody from transfected cells, western blot with FLAG antibody; three independent experiments
FLAG-CHMP2B^Intron5 = FLAG-CHMP2B^Intron5 (UniProt Q9UQN3); assay: co-IP; anti-FLAG M2 affinity gel IP from lysates of transfected HEK293 cells, overnight at 4 °C, washed with 50 mM Tris-HCl pH 7.4, 150 mM NaCl, FLAG elution; western blot with spastin antibody; four independent experiments, normalised to the abundance of CHMP2B^WT versus CHMP2B^Intron5

Chain of FLAG-CHMP2B^Intron5 (Q9UQN3 whole entry): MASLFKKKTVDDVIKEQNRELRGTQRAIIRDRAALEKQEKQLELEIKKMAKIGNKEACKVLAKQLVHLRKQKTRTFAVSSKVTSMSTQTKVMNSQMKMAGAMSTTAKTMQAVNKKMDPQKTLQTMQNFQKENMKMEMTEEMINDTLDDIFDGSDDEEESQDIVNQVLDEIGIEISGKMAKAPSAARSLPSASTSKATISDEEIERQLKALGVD

Substance	fold of CHMP2B pulled down by spastin antibody against CHMP2B^WT [1] [times]	fold of spastin pulled down against CHMP2B^WT (FLAG-CHMP2B^Intron5) [times]
FLAG-CHMP2B^Intron5 (from UniProt Q9UQN3 1-213) (natural protein)	3.3	–
spastin (from UniProt Q9UBP0 87-616) (natural protein)	–	11
